Test results: the DeepSol protein solubility set

Assay: soluble on expression in E. coli; label from the status in PepcDB or PDB records

Row | Sequence | soluble on expression in E. coli
1 | MGGSALNQGVLEGDDAPGQSLYERLSQRMLDISGDRGVLKDVIREGAGDLVAPDASVLVKYYGYLEHLDRPFDSNYFRKTPRLMKLGEDITLWGMELGLLSMQRGELARCFVLGKLLDSQGPSLHLYLRAS | not soluble
2 | MGGSHHHHHHGMASMTGGQQMGRDLYDDDDKDRWGSELEISMEQVSASIGNFTVDLFNKLNETNRDKNIFFSPWSISSALALTYLAAKGSTAREMAEVLHFEQAENIHSGFKELLTAFNKPRNNYSLRSANRIYVEKTYALLPTYLQLSKKYYKAEPQKVNFKTAPEQSRKEINTWVEKQTESKIKNLLSSDDVKATTRLILVNAIYFKAEWEVKFQAEKTSIQPFRLSKNKSKPVKMMYMRDTFPVLIMEKMNFKMIELPYVKRELSMFILLPDDIKDGTTGLEQLERELTYERLSEWADSKMMTETLVDLHLPKFSLEDRIDLRDTLRNMGMTTAFTTNADFRGMTDKKDLAISKVIHQSFVAVDEKGTEAAAATAVIISFTTSVINHVLKFKVDHPFHFFIRHNKSKTILFFGRFCCPVE | soluble
3 | MGGSHHHHHHGMASMTGGQQMGRTLYDDDDKDRWGSRKIVVVGGVAGGASVAARLRRLSEEDEIIMVERGEYISFANCGLPYYIGGVITERQKLLVQTVERMSKRFNLDIRVLSEVVKINKEEKTITIKNVTTNETYNEAYDVLILSPGAKPIVPSIPGIEEAKALFTLRNVPDTDRIKAYIDEKKPRHATVIGGGFIGVEMVENLRERGIEVTLVEMANQVMPPIDYEMAAYVHEHMKNHDVELVFEDGVDALEENGAVVRLKSGSVIQTDMLILAIGVQPESSLAKGAGLALGVRGTIKVNEKFQTSDPHIYAIGDAIEVKDFVTETETMIPLAWPANRQGRMLADIIHGHTDSLYKGTLGTSVAKVFDLTVATTGLNEKILKRLNIPYEVVHVQANSHAGYYPNATPVLIKLIFNKDSGKIYGAQTLGRDGVDKRMDVIATAIKANLTVLDLPDLELSYAPPYSSAKDPVNMVGYAASNIVDGFVDTVQWHEIDRIVENGGYLIDVREPNELKQGMIKGSINIPLDELRDRLEEVPVDKDIYITCQLGMRGYVAARMLMEKGYKVKNVDGGFKLYGTVLPERIVY | soluble
4 | MGHHHHHHEFMLKNDDFVIAKNQLGNIVPNSVGVIRAVNGKSAMVLFIGLNELKRVDFSELEAIDIYRTGKGYDKKICNICHILKNTDGFEINQTDAKGRKTTRPSCRECRKNIDGVKLSSTEKKKMDEIAPPKGSVFTCPICEKRSIVGVTANLVHDHNHDTGWGREWICDSCNTGLGRFKDNPKFLEKVIEYLKKYEK | soluble
5 | MGHHHHHHENLYFQSHLYFQSHDCGSAVTERPKAAPIPTVNPEGKLKKEPNMFSPTLMLPGLGTLSSSQMYPACSQMPTQPAQLGPGKQDTLHSCWQQLYSPSPSASSLLSLHSHSSFTAEVPQPGAQGSSSLPAYNPLNWPDEKNSSFYRNFGNTHGMGAALVSAAGMQSVSSSSIVQGTHQASATTASIMTMPRTPGEVPFLRQQVGYRS | not soluble
6 | MGHHHHHHENLYFQSHLYFQSHINEQEREIEKLKRQMAEYGAIIKSLQFRQNSLEDTFIPDLTPKVEPSVNPTGCLLGSNAVHLMRDIKKECDYLGIPDPVPATKPTTQAQDDSQKKAKRSCFGRLFTGPFRRGTSAMKTADEYEKDDRLEELYAQLERDPDP | not soluble
7 | MGHHHHHHGSRKGAELGILIKNADALEVAEKVTAVIFDKTGTLTKGKPEVTDLVPLNGDERELLRLAAIAERRSEHPIAEAIVKKALEHGIELGEPEKVEVIAGEGVVADGILVGNKRLMEDFGVAVSNEVELALEKLEREAKTAVIVARNGRVEGIIAVSDTLKESAKPAVQELKRMGIKVGMITGDNWRSAEAISRELNLDLVIAEVLPHQKSEEVKKLQAKEVVAFVGDGINDAPALAQADLGIAVGSGSDVAVESGDIVLIRDDLRDVVAAIQLSRKTMSKIK | soluble
8 | MGHHHHHHSHDDDDLNTIEFKILAYYTRHHVFKSTPALFSPKLLRTRSLSQRGLGNCSANESWTEVSWPCRNSQSSEKAINLGKKKSSWKAFFGVVEKEDSQSTPAKVSAQGQRTLEYQDSHSQQWSRCLSNVEQCLEHEAVDPKVISIANRVAEIVYSWPPPQATQAGGFKSKEIFVTEGLSFQLQGHVPVASSSKKDEEEQILAKIVELLKYSGDQLERKLKKDKALMGHFQDGLSYSVFKTITDQVLMGVDPRGESEVKAQGFKAALVIDVTAKLTAIDNHPMNRVLGFGTKYLKENFSPWIQQHGGWEKILGISHEEVD | not soluble
9 | MGHHHHHHSHGNLVTELIYVHSKLLIADDNTVIIGSANINDRSMLGKRDSEMAVIVQDTETVPSVMDGKEYQAGRFARGLRLQCFRVVLGYLDDPSEDIQDPVSDKFFKEVWVSTAARNATIYDKVFRCLPNDEVHNLIQLRDFINKPVLAKEDPIRAEEELKKIRGFLVQFPFYFLSEESLLPSVGTKEAIVPMEVWT | not soluble
10 | MGHHHHHHSHGTRMDHRSDLVFLADLRPEEIRYRLQHYFKFLFVREPLERLLSAYRNKFGEIREYQQRYGAEIVRRYRAGAGPSPAGDDVTFPEFLRYLVDEDPERMNEHWMPVYHLCQPCAVHYDFVGSYERLEADANQVLEWVRAPPHVRFPARQAWYRPASPESLHYHLCSAPRALLQDVLPKYILDFSLFAYPLPNVTKEACQQ | not soluble
11 | MGHHHHHHSHLFQGDDAKEKIAVVDETNELYPVFSKQLKAVDTDGDLDVKLSKQSEDEVTKQVKDESLDGMLIIKRDEKGTISGTYKALTISDESTYQTLQQALTQTKTAVGTAELGVSQETISSLYAPVTVGQKALKEGAKSEEELGQT | not soluble
12 | MGHHHHHHSHLQHETQELASKRVDIQNKRFYLDVKQNAKGRFLKIAEVGAGGNKSRLTLSMSVAVEFRDYLGDFIEHYAQLGPSQPPDLAQAQDEPRRALKSEFLVRENRKYYMDLKENQRGRFLRIRQTVNRGPGLGSTQGQTIALPAQGLIEFRDALAKLIDDYGVEEEPAELPEGTSLTVDNKRFFFDVGSNKYGVFMRVSEVKPTYRNSITVPYKVWAKFGHTFCKYSEEMKKIQEK | soluble
13 | MGHHHHHHSHMAKAITGVVCYACRIASTLLLYQELMRKGIRWLIELIKDDYNETVHKKTEVVITLDFCIRNIEKTVKVYEKLMKINLEAAELGEISDIHTKLLRLSSSQGTIETSLQDIDSRLSPGGSLADAWAHQEGTHPKDRNVEKLQVLLNCMTEIYYQFKKDKAERRLAYNEEQIHKFDKQKLYYHATKAMTHFTDECVKKYEAFLNKSEEWIRKMLHLRKQLLSLTNQCFDIEEEVSKYQEYTNELQETLPQKMFTASSGIKHTMTPIYPSSNTLVEMTLGMKKLKEEMEGVVKELAENNHILERFGSLTMDGGLRNVDCL | not soluble
14 | MGHHHHHHSHMAQKPGTMAQMRNGTSGGDKRQYETEVIILNQCRKLNGQIFIQRDYSKGLDVQFEAEYPARLTEKVPRDVWENTIVRINRIFADAEAITPQTIFETVLGCFTCYASYAITKSTYRRKLDELQEFLNRENREIYHHVGFHIRNPMERGLRVLEISLLSRQGETPRDDVDSPGGAIRTI | not soluble
15 | MGHHHHHHSHMAQSINITELNLPQLEMLKNQLDQEVEFLSTSIAQLKVVQTKYVEAKDCLNVLNKSNEGKELLVPLTSSMYVPGKLHDVEHVLIDVGTGYYVEKTAEDAKDFFKRKIDFLTKQMEKIQPALQEKHAMKQAVMEMMSQKIQQLTALGAAQATAKA | not soluble
16 | MGHHHHHHSHMDNAERPRARRRRKPRVLFSQAQVYELERRFKQQRYLSAPERDQLASVLKLTSTQVKIWFQNRRYKCKRQRQDQTLELVGLPPPPPPPARRIAVPVLVRDGKPCLGD | soluble
17 | MGHHHHHHSHMEAPPVTMMPVTGGTINMMEYLLQGSVLDHSLESLIHRLRGLCDNMEPETFLDHEMVFLLKGQQASPFVLRARRSMDRAGAPWHLRYLGQPEMGDKNRHALVRNCVDIATSENLTDFLMEMGFRMDHEFVAKGHLFRKGIMKIMVYKIFRILVPGNTDSTEALSLSYLVELSVVAPAGQDMVSDDMKNFAEQLKPLVHLEKIDPKRLM | soluble
18 | MGHHHHHHSHMEFPFDVDALFPERITVLDQHLRPPARRPGTTTPARVDLQQQIMTIIDELGKASAKAQNLSAPITSASRMQSNRHVVYILKDSSARPAGKGAIIGFIKVGYKKLFVLDDREAHNEVEPLCILDFYIHESVQRHGHGRELFQYMLQKERVEPHQLAIDRPSQKLLKFLNKHYNLETTVPQVNNFVIFEGFFAHQHRPPAPSLRATRHSRAAAVDPTPAAPARKLPPKRAEGDIKPYSSSDREFLKVAVEPPWPLNRAPRRATPPAHPPPRSSSLGNSPERGPLRPFVPEQELLRSLRLCPPHPTARLLLAADPGGSPAQRRRTR | not soluble
19 | MGHHHHHHSHMEGMDVDLDPELMQKFSCLGTTDKDVLISEFQRLLGFQLNPAGCAFFLDMTNWSLQAAIGAYYDFESPNISVPSMSFVEDVTIGEGESIPPDTQFVKTWRIQNSDVIWVILSVEVGGLLGVTQQLSSFETEFNTQPHRKVEGNFNPFASPQKNRQSDENNLKDPGGSEFDSISKNTWAPAPDTWAPAPDQTEQDQNRLSQNSVNLSPSSHANNLSVVTYSKGLHGPYPFGQS | soluble
20 | MGHHHHHHSHMEPGEELEEEGSPGGREDGFTAEHLAAEAMAADMDPWLVFDARTTPATELDAWLAKYPPSQVTRYGDPGSPNSEPVGWIAVYGQGYSPNSGDVQGLQAAWEALQTSGRPITPGTLRQLAITHHVLSGKWLMHLAPGFKLDHAWAGIARAVVEGRLQVAKVSPRAKEGGRQVICVYTDDFTDRLGVLEADSAIRAAGIKCLLTYKPDVYTYLGIYRANRWHLCPTLYESRFQLGGSARGSRVLDRANNVELT | not soluble
21 | MGHHHHHHSHMETIGAKALEDFADNIKNDPDKEYNMPKDGTVHELTSNAILFLQQLLDFQETAGAMLASQETSSSATSYSSEFSKRLLSTYICKVLGNLQLNLLSKSKVYEDPALSAIFLHNNYNYILKSLEKSELIQLVAVTQKTAERSYREHIEQQIQTYQRSWLKVTDYIAEKNLPVFQPGVKLRDKERQIIKERFKGFNDGLEELCKIQKAWAIPDTEQRDRIRQAQKTIVKETYGAFLQKFGSVPFTKNPEKYIKYGVEQVGDMIDRLFDTSA | not soluble
22 | MGHHHHHHSHMGGLPMISASLQQRKTRTRRSMLFVPGANAAMVSNSFIYPADALMFDLEDSVALREKDTARRMVYHALQHPLYRDIETIVRVNALDSEWGVNDLEAVVRGGADVVRLPKTDTAQDVLDIEKEILRIEKACGREPGSTGLLAAIESPLGITRAVEIAHASERLIGIALGAEDYVRNLRTERSPEGTELLFARCSILQAARSAGIQAFDTVYSDANNEAGFLQEAAHIKQLGFDGKSLINPRQIDLLHNLYAPTQKEVDHARRVVEAAEAAAREGLGVVSLNGKMVDGPVIDRARLVLSRAELSGIREE | not soluble
23 | MGHHHHHHSHMHISGVFATKDAVAVWNGRQVAIFELSGAAIRSAGTFLCETPVLAMHEENVYTVESNRVQVRTWQGTVKQLLLFSETEGNPCFLDICGNFLVVGTDLAHFKSFDLSRREAKAHCSCRSLAELVPGVGGIASLRCSSSGSTISILPSKADNSPDSKICFYDVEMDTVTVFDFKTGQAWCLALVEVGPKGPSARDASAETRVWETPHALHLPAPPSWRGPGSVGKGSCER | not soluble
24 | MGHHHHHHSHMIDILDVKSRATIQDLGRFGLRRFGISHCGAMDKLALRAGNILLGNAENVPAIEVPLGGITLQFQQDMNFCVTGAFYEMMLDDKPVFAYWRYQVRAGQILKMARAKIGMYGYLCVQGGFVLPQALNSCSTDLRAQIGGIEGRCLQAGDQLQTANDHILRSEIGIAPIPLRDVIRALPSSEYQAFKRKSQYYWWRNEWTLQSNSDRMGYRFQGQTLELKQPLEMLSHAIQFGSVQVPPSGQPIILMADAQTTGGYPKIANVIDADLGALAQVRLGSTIKFEAVSLQEAAKLRRKNEIYLDQIRRIVDEKN | not soluble
